Reference: PMC5951399

Molecular target: frataxin, mature form (FXN^81–210) (human) (UniProt Q16595)
Experiment: ITC

frataxin, mature form (FXN^81–210) (human), sequence (Q16595 81-210): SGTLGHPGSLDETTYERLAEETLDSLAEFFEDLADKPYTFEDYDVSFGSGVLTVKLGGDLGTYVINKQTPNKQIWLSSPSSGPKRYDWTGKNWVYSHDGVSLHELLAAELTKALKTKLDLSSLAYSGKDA
cysteine desulfurase complex [NFS1]2:[ISD11]2:[Acp]2, sequence (P0A6A8 whole entry, looked up): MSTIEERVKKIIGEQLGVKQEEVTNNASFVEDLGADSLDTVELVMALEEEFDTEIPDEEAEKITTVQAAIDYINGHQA
cysteine desulfurase complex [NFS1]2:[ISD11]2:[Acp]2, sequence (Q9HD34 whole entry, looked up): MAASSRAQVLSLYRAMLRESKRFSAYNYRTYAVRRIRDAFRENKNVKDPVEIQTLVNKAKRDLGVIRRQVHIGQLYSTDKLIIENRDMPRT
[NFS1]2:[ISD11]2:[Acp]2:[ISCU]2 complex, sequence (Q9H1K1 whole entry, looked up): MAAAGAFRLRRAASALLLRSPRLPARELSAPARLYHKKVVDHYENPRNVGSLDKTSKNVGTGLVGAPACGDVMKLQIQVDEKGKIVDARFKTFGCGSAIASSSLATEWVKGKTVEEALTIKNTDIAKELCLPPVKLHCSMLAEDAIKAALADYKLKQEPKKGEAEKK
[NFS1]2:[ISD11]2:[Acp]2:[ISCU]2 complex, sequence (P0A6A8 whole entry, looked up): as the sequence (P0A6A8 whole entry, looked up) above
[NFS1]2:[ISD11]2:[Acp]2:[ISCU]2 complex, sequence (Q9HD34 whole entry, looked up): as the sequence (Q9HD34 whole entry, looked up) above

**Q.** Which Kd does the source give for “[NFS1]2:[ISD11]2:[Acp]2:[ISCU]2 complex (from UniProt Q9HD34 1-91; P0A6A8 1-78; Q9H1K1-1 35-167)” here?
**A.** 3 µM

**Q.** For “cysteine desulfurase complex [NFS1]2:[ISD11]2:[Acp]2 (from UniProt Q9HD34 1-91; P0A6A8 1-78)”, which Kd is on record?
**A.** 26.2 µM
